Biological target: HA-PLK1 (human, UniProt P53350 1-603)
Experiment: cell-based or functional assay

HA-PLK1, sequence (P53350 whole entry): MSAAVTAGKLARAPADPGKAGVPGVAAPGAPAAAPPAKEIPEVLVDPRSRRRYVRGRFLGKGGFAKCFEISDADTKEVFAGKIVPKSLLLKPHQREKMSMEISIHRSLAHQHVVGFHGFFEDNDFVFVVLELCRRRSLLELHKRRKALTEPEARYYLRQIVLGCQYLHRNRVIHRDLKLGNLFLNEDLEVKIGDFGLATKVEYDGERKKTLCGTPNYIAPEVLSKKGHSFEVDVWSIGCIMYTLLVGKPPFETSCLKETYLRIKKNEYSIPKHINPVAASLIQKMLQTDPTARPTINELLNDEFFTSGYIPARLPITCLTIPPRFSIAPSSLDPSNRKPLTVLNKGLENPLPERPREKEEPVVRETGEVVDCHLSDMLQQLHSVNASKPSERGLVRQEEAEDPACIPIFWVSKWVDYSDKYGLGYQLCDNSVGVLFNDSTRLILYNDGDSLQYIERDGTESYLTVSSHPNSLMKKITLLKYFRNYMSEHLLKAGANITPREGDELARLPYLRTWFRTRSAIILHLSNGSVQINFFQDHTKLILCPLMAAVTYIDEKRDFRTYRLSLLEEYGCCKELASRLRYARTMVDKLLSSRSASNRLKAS

in vitro PLK1 kinase activity (universal kinase activity kit, purified PLK1 with AMPKα2 and ATP); EC50 of RGCC for activation of PLK1: 19.4 nM
B1: GST-RGCC (natural protein, UniProt Q9H4X1 1-137, looked up)
chain: MKPPAAQGSPAAAAAAAPALDSAAAEDLSDALCEFDAVLADFASPFHERHFHYEEHLERMKRRSSASVSDSSGFSDSESADSLYRNSFSFSDEKLNSPTDSTPALLSATVTPQKAKLGDTKELEAFIADLDKTLASM
